# Assay: label from the status in PepcDB records
row,Sequence,protein production
1,MPAPHPDSSVAPTTRLIAERALAAVFQPIVDLGSGTVVGYEGLIRGPRGTDLEPPAALFAQAARDGTTIALEQAAALACLDAFAALGCDGKLFLNFSAGTIVQLVRERERARQLLGRAGVGAERIVIELTEQTAMPDVARIEPAVASLRDAGIQFALDDYGTANASMNLWLRLHPDVVKIDRFFIHDIARDPLKFEAVRAMQHFAHASGAQLIAEGIENASDLIVVRDMGICCVQGFLLGRPNARPSPVVAPAARDAIRTPHIAVFPGAMRTARPAGTIAAKMLVPAPALPRDATSNDVLDLFNRMPGLHAVALVERGRPVALVNRRGFIDRFTLPYHREVFGKKPCLQFANDAPLMIDNATSVEQLAMLLASHDQRYLADGFVITEHGRYLGLGTGESLVRAVTEMRIEAARYANPLTFLPGNIPISAHIDRLLERDAGFHACYVDLNQFKPFNDQYGYWQGDEVLKFAATVLAGVCDPQRDFLGHVGGDDFLVLFQRDDWRARATDAIARFNDGAQRFYTQADRLAGGLRGEDRHGNPAFFGFVTMAIGAVGVPAGAHGAMRYGSDEIASVAALAKRRAKQQPGGLAVVDLDAGRAALRERGEPPLAAAG,failed
2,MRICMVSDFFYPSIGGVEEHVYNLSQMLLSLGHKIVVLTHAYGDCSGIRYVTGYLKVYYLPIKVCYNQCILPTAVCNVPMLRAVLLRERVEVVHGHSAFSALAHEALMVGSLLGLKTVFTDHSLFGFADLSAALTNNLLEVNLGMVNHAICVSHIGKENTVLRARVAKHRVSVIPNAVDTALFTPDPQQRPSNDIINIVVASRLVYRKGIDLLAGIIPRFKNTPNINFIIVGDGPKRDLLEEIREKTNMQERVQMVGAVEHNRVRDFLVRGHIFLNTSLTEAYCMAIVEAASCGLQVVSTSVGGIPEVLPKSLILLAEPEIDAIYAAILIAIDRHRKSSFKVSPSVGNGHLASDANGKVKRRRRRKVDTPISPTQLPAVSAPPADQNSSTEPVMCPYRCNELVETLYNWEDVALRTVKVYDRVLNERSFTTSELVFAVWQHGSWFLVFFVVAHFLMRLLELWRPRKHVEIAQDVQRRAS,failed
3,MGPTLGPAPLRGKSIPMNRTGRALTLGCLLLLQPLLAHAQAGGNSLLIPALGRCTLDPQAQDQAEALTACQKAADEGDAEAQYELGEFYYEGKGAPQDFNQALSYFEKASLQGHAQAQFKLGTMFFHGEGVPANNVQAYIVLKMAAVNGAEDALDTADEVAEHMQRDELEVATQVLGQIFRKYLMELQSADGRSPFSPLP,failed
4,MQRTLGEIMKIYFATGNPNKIKEANIILKDLKDVEIEQIKISYPEIQGTLEEVAEFGAKWVYNILKKPVIVEDSGFFVEALNGFPGTYSKFVQETIGNEGILKLLEGKDNRNAYFKTVIGYCDENGVRLFKGIVKGRVSEEIRSKGYGFAYDSIFIPEEEERTFAEMTTEEKSQISHRKKAFEEFKKFLLDRI,not failed
5,MTTPVNGSVIPLISLRESRMPSLTDGAIRRALKQVEQTQKPVTLADGEGRGIGRLILFVRPMPTRVIAYWLVQQWRAGARSRKKIGAYPSMSLNQARNIFDRDFADAIQKGRSIKALGDTRAGTLGDLFDAYIAHLKSSGKKSWKEAEKGLNKVADTLGRHRPARDIEPHEIVDIIRPIYGRGTRSMADHVRGYLRAAFSWGIKSEHDYRHASPRRFGLTKNPAAGIPSEPYVPGNRWLDEEEFLRLYRWLECPDTPVHPPYTRAVRLLMLTGQRVEEIARLHIAQWDAKERIIDWSTTKNGKPHAIPVPDLAAELLESIKPNNYGWFFPSAFDPSKPVAHNTLYSFMWRQRERGVIPVVTNRDLRRTWKTLAGKAGLSKEIRDRLQNHTLQDVSSKAYDRWNYMPEKRAAMKQWNSFVRSVLTPDRLTSAA,failed
6,MNKKKDILVIGFALFSIFFGAGNLIFPPYIGLTSGGEWLISFLGFIISDVGIIFLSIVAVSKAGSFQGVVGRAGKKFGITLEILMMLCLGPILVVPRTAATTFEMSISPLLGNVNPYVFSVIFFLIVFVLTIKPNKVMDIIGKVLTPLLLISLAVLIIKGIINPIGDLENVNSGKLFMTGITQGYQTMDALGTGGIVALVMASFASKGYKDKKENRMLTIKSALIACIGLAIVYGGLTFLGATSSTLYDSSISQTTLLMNITNAILGSTGTIMLAIVIGLACLTTAVGLTSVTAKYFEDVSNKKLKYKYIVIAICVFSALSSNLGVDKIIEIAVPILSLIYPVSILLVVMSIFEKFVPNNVVVKGATYATLLISLLTVIDSLGIKFEFVHKLPLANLGFNWVVPAIVGGLIAGLVFRKREVVSLEESY,failed
7,MDPSLHARPHPRRRLRCALLALACGTGAAHAATPPPYLQTQRSFEQRAADLVSRMTLEEKAAQMQNAAPAIPRLGVPAYDWWNEALHGVARAGGATVFPQAIGMAATFDLPLMHEVATAISDEARAKHHRFLRQHQHARYQGLTFWSPNINIFRDPRWGRGQETYGEDPFLTARMGVTFVQGLQGEGSDAPKNAQGERYRKLDATAKHFAVHSGPEADRHHFDARPSQRDLYETYLPAFEALVKDGKVDAVMGAYNRVYGESASASKFLLQDVLRQQWGFKGYVVSDCWAIVDVWKHHKIVATREQAAALAVTHGTELECGEEYSTLPAAVHQGLIDEAQIDTALQTLMTARMRLGMFDPPGQLPWSKIPASVNQSPAHDALARRTARESLVLLKNDGLLPLSRATLKRIAVIGPTADDTMALLGNYYGTPAAPVTVLQGIRAAAPNAQVLYARGADLVEGRNDPAATPLIEPHYLRPSANSPERGLRGEYFRNRDLSGKPALVRVDAQIGFTWDRGSPTDNLLARGEAGPSEAVPADNFSIRWSGQLVPPTTGTYHLEAAADDGVRLYLDGKPVIDRWSTSDRLHADGVDVQLQAGRSYDLRLDYFEGERDAAVRLAWRQPGAKPPLQEALDVARSADVVVFVGGLTGDVEGEEMKVSYPGFAGGDRTDLRLPKPQRELLEALQATGKPVVAVLTAGSALAVDWAQQHVPAILLAWYPGQRGGTAVADTLFGDANPGGRLPVTFYKESETLPAFDDYAMHGRTYRYFGGTPLYPFGHGLSYTQFAYSDLRLDRSTLTADGALTATVAVKNTGQRAGDEVVQLYLHPLKPQRERAGKELRGFQRLALQPGQQRELRFTINAKDALRIYDAQRKAYTVDPGAYEVQIGASSADIRARQRFTVTDK,failed
8,MSKPAITLWSDAHFFSPYVLSAWVALQEKGLSFHIKTIDLDSGEHLQPTWQGYGQTRRVPLLQIDDFELSESSAIAEYLEDRFAPPTWERIYPLDLENRARARQIQAWLRSDLMPIREERPTDVVFAGAKKAPLTAEGKASAEKLFAMAEHLLVLGQPNLFGEWCIADTDLALMINRLVLHGDEVPERLVDYATFQWQRASVQRFIALSAKQSG,not failed
9,MADVATKHPMEDEVKKTEASSLVGKLETDVEIKASADKFHHMFAGKPHHVSKASPGNIQGCDLHEGDWGTVGSIVFWNYVHDGEAKVAKERIEAVEPDKNLITFRVIEGDLMKEYKSFLLTIQVTPKPGGPGSIVHWHLEYEKISEEVAHPETLLQFCVEVSKEIDEHLLAEEEEVKTPETPSLVGKLETDVEIKASAEKFHHMFAGKPHHVSKASPGNIQGCDLHEGDWGQVGSIVFWNYVHDREAKVAKERIEAVEPNKNLITFRVIDGDLMKEYKSFLLTIQVTPKLGGPGSIVHWHLEYEKISEEVAHPETLLQFCVEVSKEIDEHLLAEE,failed
10,MSMLKKTKEFFGLAPYEAEHEDAYYADEPRYEGTAAYAPEYRERDYGYAPEAPAPVAPSPAPRSYQSTIVPVELHSFEDAQVIGGAFRDGDAVVFDMSLLSREEARRIVDFAAGLCFALRGKMQKIDSVTFAVVPELSNISTSELERAARIRLEHHHHHH,not failed
11,MFERFTEKAIKVITLAQEEARRLGYNFFGTEHILLSLIGEGTGIAAKVLKSMGINLKDARVEVEKIIGRGSGFVVVEIPFTPRKACAGFVTRGSSTTRHKGIAVRVLEILGADPSNIRTQVNAPILVNSQQALVAEVMETATWQVGNTRRGKLDPVVGRQPQIKRVVQILARRTCRNNACLIGKPGVGKRAIAEGIAQRIASGDVPETIKGKMNVAGNCGWNEIRWRSRGKIEEVYGQSDDIILFIDEMHLLIGAGAVEGAIDAANILKPALERCELQYRKHIENDPALERRFQPVKVPEPTVEEAIQITTVLAKGKEVNKADNEAEEGRPTVTEADNEAE,failed
12,MGIFGWRTASLLKKAWQLYQQQHWSKAQQCARQVIEQTPQPEAYYLLGLIAEQLARPLEARTAYEQAIALDPWHAPSHYRLAVVLHALLQQPAAAVPHYQRALEVKPDWVEAHSNLGNAYLDLGDTEGAIACYQKALSLNPDLPTTLYNLGLCLHAQGKLTEATACYEQSLYLEPGQADVHNNLGSAYLELKNYTAATVHFQAALGANPELLVAHYNLGYALHLQGNLAAARDRYQEVLLRDNKHLRTLLQLGQICLAEEDLTGAIGYYQRCLSLDPLNSAAQAGLATALLESGDPQAALPYLRQAVALNPEAEDVRLKFALVLLMLEQFREGWQEYEWRWQQPTGGLRNYPQPRWQGQSLKGKTLFVYSEQGFRDCIQFVRLLPLMAKHAQRIIFEAYPPLVRLCQTLPGIEVMSTEETPPPFDYHTPLLSLPRYLGIDQDHFPKFKPYFPLPTRPPHPLFKVSKPRVGLVWASHSQTRTTVQRSCPLEYFLPLLQEFDVQWYSLQKERSPTEAEQLRQVGVIDCQPYMGDFLDTALLIQQLDAVVTIDTAVAHLAGALGKPLWILLPFVADWRWFWRRSRSPWYPSAELIRQPQRGDWPGAIAQLRSALQAHYRTRCNGIPN,failed
13,MTGLSQSQASPMQIQPGNAAFNPWTDAALDTIRDVNQALTLYAEMRVVPAHHDAFLAAIDTVSAKLRVLPGFLSLALKQMSGDSTMVKNYPETYKGVLATAYLDGVAAGTQPYFYNLFVRFADGRAARAAGFEALFETHIHPLLHAMAPRGGDGPELLAYRAVLQSVVAGDRHAIYRGAEEIRSFLRRPVELPERETVTVENHVMVPEDKHAAWEPQVAILLQVAQDTFEPQDEPSGVGLPGARDNRYYRKALSTEILRNAHADGGLRAYIMHGVWESVWDHENSHLDPRFLAAAGPVGAAAVVGPVEPFYLTRRLVVAD,not failed
14,MATATETSKATTKTQASAAADRESLTVSRAFNAPRDLVFQAWSAAEHLKHWFCPQGFTIPECEVEFRPGGKFDLWMRSLDGNYSHWIRGHYVEIIPHSRLVLDMTVVTEAGVALFNANTSVTFETVCGGTEMSVTQRYTALDPSAGNFTRGAEEGWAQTLDRLEKEVARIAAATPARSVAHGVFTIERTYDASPELVFRALSDPVAKAQWFNGGPGYTEVKRTMDVRPGGREHLQGRWENGLVSTFDAVYFDVIPNERLVYSYEMHMGERKISVSLATFELKRAGQGTRLVMTEQGAFLDGYDDAGSREHGSGLLLDAIGEWLKAMTKR,failed
15,MSRAYTGALSYPQKIVIILLNKISSQHLKGDIFGGLTAAVIALPLALAFGVSSGAGAIAGVYGAIFVGFFAALFGGTATQISGPTGPMSVVMALVFTQLIGSHPDTGLVLAFTCVILAGLFQILFGLLKLGKYFVMVPYPVISGFMTGIGIIIILLQISPLLGSAGDSNALAALMNIPNALSQQNTLATVLGVITLLLMIYWPEKWTKIIPAPLFALITLTVISATFFSQQGISVIGEIPTGFPSLSMPSLSLESLSQVSYFAFLLAVLGAIDSLLTSMVADTLTETHHDSDKELIGQGIANTIAGFFGALPGAGATMRTAINIRAGGKTALSGIIHSITLLIVILWAGDYAQYIPHTVLAGMLIKVGLDIIDWRFIFQIKKVGLFSATLMLLVLLLTVFVDLITAVLVGMFIANLVTLDRLTHIQLDNITFKRGDELLSEISSNETNIALTDDIQNNLSKSLANTLLLEIDGPVSFAVSRELSRRFTENLAFTTLVIDLSNAKLIGTTTAIMITDLIDRTKSKEKTVLVITGNEKINQSLDKLSLATLLDKKYQFTNREQALQTLI,failed
16,TGQGWMLNLRREKFQDPKVREALNLMFNFEWSNQTLFYGLYTRVDSFWENSYLEAEGAPSEAEAALLKPLVDEGLLPASILTEPPVSPPVSGERQLDRRNLRAASKLLDEAGWTVGSDGMRRNAKGEVLRVEFLNDSQTFDRVISPFVENLRALGVDALMTRVDNAQMESRTRPPSYDFDITTGNARTNYISGAELKQYYGSETADISAFNIMGLKDKAVDRMIEVVLAAKTSEELEVATKALDRVLRLQRFWVPQWYKA,failed
